According to patent US20220242939A1 (BIOARCTIC, published 2022):
Read-outs that look alike come from different tables or passages of the source. Non-standard residues stand in square brackets, D forms with d. No end group written: not given here. Ahx = NCCCCCC(=O)O

T1: A199 N-terminal neo-epitope peptide AGQPLQE-Acp-C (SEQ ID NO:55) conjugated to BSA (human, not fully specified (residue 9); printed as AGQPLQE-Acp-C; also: C-terminal Cys conjugated to BSA carrier)
T1 construct: BSA carrier
T1 peptide: AGQPLQE[Ahx]C

T2: L198 N-terminal neo-epitope peptide LAGQPL-Acp-C (SEQ ID NO:52) conjugated to BSA (human, not fully specified (residue 8); printed as LAGQPL-Acp-C; also: C-terminal Cys conjugated to BSA carrier)
T2 construct: BSA carrier; also called L198-BSA peptide
T2 peptide: LAGQPL[Ahx]C

T3: negative control peptide AATVGSLAGQPLQER-Acp-C (SEQ ID NO:53) conjugated to BSA (human, not fully specified (residue 17); printed as AATVGSLAGQPLQER-Acp-C; also: C-terminal Cys conjugated to BSA carrier)
T3 construct: BSA carrier; also called 192-206 BSA-conjugated peptide
T3 peptide: AATVGSLAGQPLQER[Ahx]C

T4: G200 N-terminal neo-epitope peptide GQPLQE-Acp-C (SEQ ID NO:50) conjugated to BSA (human, not fully specified (residue 8); printed as GQPLQE-Acp-C; also: C-terminal Cys conjugated to BSA carrier)
T4 construct: also called G200-BSA peptide; G200-peptide
T4 peptide: GQPLQE[Ahx]C

T5: A199 N-terminal neo-epitope peptide AGQPLQ-Acp-C (SEQ ID NO:51) conjugated to BSA (human, not fully specified (residue 8); printed as AGQPLQ-Acp-C; also: C-terminal Cys conjugated to BSA carrier)
T5 construct: BSA carrier; also called A199-BSA peptide
T5 peptide: AGQPLQ[Ahx]C

T6: L198 N-terminal neo-epitope peptide LAGQPLQE-Acp-C (SEQ ID NO:54) conjugated to BSA (human, not fully specified (residue 10); printed as LAGQPLQE-Acp-C; also: C-terminal Cys conjugated to BSA carrier)
T6 construct: BSA carrier
T6 peptide: LAGQPLQE[Ahx]C


Experiments:
[1] = target: T7, recombinant C-terminal ApoE fragment A199-HIS (ApoE-A199-H299-10xHIS) (human, UniProt P02649 217-317); test: direct ELISA, A199-HIS coated at 0.1 µM
T7 construct: also called A199-HIS fragment
T7 sequence (P02649 other isoform, or with tags, fused parts or gaps limits assumed): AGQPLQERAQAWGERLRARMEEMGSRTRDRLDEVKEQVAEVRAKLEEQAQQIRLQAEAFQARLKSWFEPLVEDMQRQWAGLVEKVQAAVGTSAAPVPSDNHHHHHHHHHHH
Procedure: (§1) Selectivity evaluation of purified monoclonal antibodies by direct ELISA: The direct ELISA described below was used to evaluate the binding selectivity of the purified monoclonal antibodies produced in Example 17.
(§2) The screening was performed according to standard ELISA protocols. Briefly, 1 μg/ml solutions of BSA-conjugated neo-epitope peptides and negative control peptide, and 0.1 μM recombinant C-terminal ApoE fragment and full-length ApoE (Abcam, cat. no. ab50243) were prepared by dilution in PBS. 50 μl/well were added to an ELISA half-area 96 well microtiter plate, and the plate was sealed with adhesive sealer and incubated over night at 4° C. After discarding the solution, the plates were blocked with 150 μl/well of protein-free blocking solution (Pierce) for 1 h at room temperature with shake (600-900 rpm). The plates were washed four times with washing buffer containing 0.28 mM NaH₂PO₄, 2.5 mM Na₂HPO₄, 150 mM NaCl, 0.1% TWEEN®-20 and 0.0075% Kathon CG. Purified monoclonal antibodies of interest were 3-fold serially diluted with a starting dilution at 3 μg/ml (mixed 1:2 with dilution buffer (PBS with 0.1% BSA and 0.05% TWEEN®-20)). An anti-ApoE C-terminal antibody was used as a reference antibody (ApoE E-8 mouse monoclonal, Santa Cruz Biotechnology, cat. no. sc-393302). 50 μl/well were added into the ELISA plates and incubated for 2 h at room temperature with shake (600-900 rpm). The plates were washed four times as described previously. […] After another wash (as described previously), 50 μl/well of K-Blue® aqueous substrate (Neogen) were added, and the reaction was stopped after 5-15 min with 50 μl/well of 0.5 M H₂SO₄. The optical density at 450 nm was read using an ELISA reader (Tecan).

[2] = target: T8, full-length ApoE in human brain extract from Alzheimer's disease patients (human, UniProt P02649 19-317); test: Western blot of AD brain RIPA 2% SDS extract; anti-A199 antibody at 2 ug/ml as primary antibody
T8 construct: mature; Endogenous protein on Western blot or in solution (IP); also called ApoE full-length protein
T8 sequence (P02649 19-317): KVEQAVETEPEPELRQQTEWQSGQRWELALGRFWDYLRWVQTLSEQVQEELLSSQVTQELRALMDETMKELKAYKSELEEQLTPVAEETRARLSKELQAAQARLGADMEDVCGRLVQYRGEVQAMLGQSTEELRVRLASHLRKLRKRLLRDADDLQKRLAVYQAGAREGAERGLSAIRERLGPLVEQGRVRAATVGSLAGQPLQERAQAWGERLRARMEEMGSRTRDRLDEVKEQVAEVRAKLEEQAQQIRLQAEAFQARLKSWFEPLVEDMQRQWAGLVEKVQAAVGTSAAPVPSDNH
Procedure: RIPA 2% SDS brain extract containing approximately 60 μg total protein was mixed with 2×Laemmli sample buffer, boiled for 5 min at 95° C. and loaded onto SDS-PAGE gels (Bolt™ 12% Bis-Tris Plus 10 well, Thermo Fisher, cat. no. NW00120BOX). Gels were run for 30-40 min at 180 V, after which proteins were transferred from the gels onto nitrocellulose membranes using the Trans-Blot® Turbo™ system (Bio-Rad). […] Membranes were washed and incubated for 1 h at room temperature with the detection antibody anti-mouse-800CW (LI-COR, cat. no. 925-32210) diluted 1:25000 in Intercept® PBS Blocking Buffer (LI-COR) with 0.1% TWEEN®-20. Membranes were washed and images acquired using Odyssey® FC (LI-COR).

[3] = target: T1, A199 N-terminal neo-epitope peptide …; test: direct ELISA after limiting dilution
[4] = target: T2, L198 N-terminal neo-epitope peptide …; test: direct ELISA; proteins coated at 0.1 uM, BSA peptides at 1 ug/ml; antibody in 3-fold dilutions from 3000 ng/ml; blank reduced OD 450 nm
Procedure: as §1, §2

[5] = target: T9, recombinant full-length ApoE4 (aa 1-299; SEQ ID NO:45; Abcam cat. no. ab50243) (human, UniProt P02649 19-317); test: as above
T9 construct: Bought protein; also called recombinant ApoE4 full-length protein
T9 sequence (P02649 19-317 C130R limits assumed): as the sequence (P02649 19-317) above, with C112R counted along it
Procedure: as §1, §2

[6] = target: T3, negative control peptide …; test: as above
Procedure: as §1, §2

[7] = target: T4, G200 N-terminal neo-epitope peptide …; test: as above
Procedure: as §1, §2

[8] = target: T5, A199 N-terminal neo-epitope peptide …; test: direct ELISA, A199-BSA peptide coated at 1 µg/ml
Procedure: as §1, §2

[9] = target: T2, L198 N-terminal neo-epitope peptide …; test: direct ELISA, L198-BSA peptide coated at 1 µg/ml
Procedure: (§3) Selectivity evaluation of purified monoclonal antibodies by direct ELISA: The direct ELISA described below was used to evaluate the binding selectivity of the purified monoclonal antibodies produced in Example 14.
as §2, with “[…].” for “H₂SO₄.”

[10] = target: T8, full-length ApoE in human brain extract …; test: Western blot of AD brain RIPA 2% SDS extract; monoclonal antibody at 2 ug/ml as primary antibody
[11] = target: T6, L198 N-terminal neo-epitope peptide …; test: direct ELISA after limiting dilution
[12] = target: T10, recombinant C-terminal ApoE fragment L198-HIS (ApoE-L198-H299-10xHIS) (human, UniProt P02649 216-317); test: direct ELISA, L198-HIS coated at 0.1 µM
T10 construct: also called L198-HIS fragment
T10 sequence (P02649 other isoform, or with tags, fused parts or gaps limits assumed): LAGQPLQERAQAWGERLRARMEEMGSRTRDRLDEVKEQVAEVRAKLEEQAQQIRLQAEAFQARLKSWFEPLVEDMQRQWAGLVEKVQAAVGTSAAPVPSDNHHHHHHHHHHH
Procedure: as §3
as §2, with “[…].” for “H₂SO₄.”

[13] = target: T9, recombinant full-length ApoE4 (aa …); test: direct ELISA; proteins coated at 0.1 uM, BSA peptides at 1 ug/ml; antibody in 3-fold dilutions from 3000 ng/ml; blank reduced OD 450 nm; remark: listed apart in the source
Procedure: as §3
as §2, with “[…].” for “H₂SO₄.”

[14] = target: T4, G200 N-terminal neo-epitope peptide …; test: as above
Procedure: as §3
as §2, with “[…].” for “H₂SO₄.”

Binder | EC50 [1] [µg/mL] | binding result [2] | binding result [3] | binding result [4] | binding result [5] | binding result [6] | binding result [7] | EC50 [8] [µg/mL] | EC50 [9] [µg/mL] | binding result [10] | binding result [11] | EC50 [12] [µg/mL] | binding result [13] | binding result [14]
36A12, monoclonal anti-A199 antibody (antibody, IgG1, V domains shown) VH: EVKLEESGGGLVQPGGSMKLSCVASGFTFSNYWMNWVRQSPEKGLEWIGEIKLKSNNYGTHYAESVKGRFTISRDDSKSSVYLQMNNLRAEDTGIYYCTRDTEVVAGAHWGQGTLVTVSA VL: NIMMTQSPSSLAVSAGEKVTMSCKSSQSVLYNSNQKNYLAWYQQKPGQSPKLLIYWASTRDSGVPDRFTGSGSGTDFTLTISSVRAEDLAVYFCQQYLSSLTFGAGTKLELK | 0.0202 | no binding (tested: 2 ug/ml (text)) | binds | no binding (tested: 3000 ng/ml) | no binding (tested: 3000 ng/ml) | no binding (tested: 3000 ng/ml) | no binding (tested: 3000 ng/ml) | 0.0051 |  |  |  |  |  | 
38G9, monoclonal anti-A199 antibody (antibody, IgG1, V domains shown) VH: EVKLEESGGGLVQPGGSMKLSCVASGFTFSNYWMNWVRQSPEKGLEWVGEIKLKSNNYGTHYAESVKGRFTISRDDSKSSVYLQMNNLRAEDTGIYYCTRDTEVVAGAHWGQGTLVTVSA VL: NIMMTQSPSSLAVSAGEKVTMSCKSSQSVLYSSNQKNYLAWYQQKPGQSPKLLIYWASTRESGVPDRFTGSGSGTDFTLTISSVQAEDLAVYFCQQYLSSLTFGAGTKLELK | 0.0397 | no binding (tested: 2 ug/ml (text)) | binds | no binding (tested: 3000 ng/ml) | no binding (tested: 3000 ng/ml) | no binding (tested: 3000 ng/ml) | no binding (tested: 3000 ng/ml) | 0.0046 |  |  |  |  |  | 
15F8, monoclonal anti-L198 antibody (antibody, IgG2c, V domains shown) VH: EVKLEESGGGLVHPGGSMKLSCVGSGFTFSNYWMNWVRQSPEKGLEWVAQIKLRSDNYATHYAESVKGKFTISRDDAKSSVYLQMDNLRAEDTGIYYCSHHYLDSGGYFDVWGTGTSVTVSS VL: DIVMTQSQKFMSTSVGDRVSVTCKASQNVGINVAWYQDKPGQSPKGLILSASYRYSGVPDRFTGSGSGTDFTLTISNVQSEDLAEYFCQQYNSYPYTFGGGTKLEIK |  |  |  |  |  |  |  |  | 0.0247 | no binding (tested: 2 ug/ml (text)) | binds | 0.015 | no binding (tested: 3000 ng/ml) | no binding (tested: 3000 ng/ml)
